Results taken from paper PMC3663191 (mBio, 2013).
Positions count from the first letter of the chain named. In names and notes the source's numbering stands. Several values for one entry are separate records, joined by “and”; a condition that tells them apart may be missing. Equal values may be shown once.

B1: WspR^wt (His-tagged WspR, purified) (enzyme, Pseudomonas aeruginosa)
chain: MHNPHESKTDLGAPLDGAVMVLLVDDQAMIGEAVRRSLASEAGIDFHFCSDPQQAVAVANQIKPTVILQDLVMPGVDGLTLLAAYRGNPATRDIPIIVLSTKEEPTVKSAAFAAGANDYLVKLPDAIELVARIRYHSRSYIALQQRDEAYRALRESQQQLLETNLVLQRLMNSDGLTGLSNRRHFDEYLEMEWRRSLREQSQLSLLMIDVDYFKSYNDTFGHVAGDEALRQVAGAIREGCSRSSDLAARYGGEEFAMVLPGTSPGGARLLAEKVRRTVESLQISHDQPRPGSHLTVSIGVSTLVPGGGGQTFRVLIEMADQALYQAKNNGRNQVGLMEQPVPPAPAG
B2: WspR^V72D (His-tagged WspR V72D variant, purified) (enzyme, Pseudomonas aeruginosa)
chain: B1 chain with V72D

Target: the molecule itself
Experiment: SEC

Protein	stoichiometry N
B1	4 and 2
B2	4 and 2
